# Laboratory results reported in PMC2933578, “Mutational analysis of an archaeal minichromosome maintenance protein exterior hairpin reveals critical residues for helicase activity and DNA binding” (BMC Molecular Biology, 2010).
# Positions count from the first letter of the chain named. Numbers in names are those of the source.
# B1: ssoMCM mutant M6 (D327A) (enzyme, Sulfolobus solfataricus, UniProt Q9UXG1 1-686, looked up)
# chain: MEIPSKQIDYRDVFIEFLTTFKGNNNQNKYIERINELVAYRKKSLIIEFSDVLSFNENLAYEIINNTKIILPILEGALYDHILQLDPTYQRDIEKVHVRIVGIPRVIELRKIRSTDIGKLITIDGILVKVTPVKERIYKATYKHIHPDCMQEFEWPEDEEMPEVLEMPTICPKCGKPGQFRLIPEKTKLIDWQKAVIQERPEEVPSGQLPRQLEIILEDDLVDSARPGDRVKVTGILDIKQDSPVKRGSRAVFDIYMKVSSIEVSQKVLDEVIISEEDEKKIKDLAKDPWIRDRIISSIAPSIYGHWELKEALALALFGGVPKVLEATRIRGDIHILIIGDPGTAKSQMLQFISRVAPRAVYTTGKGSTAAGLTAAVVREKGTGEYYLEAGALVLADGGIAVIDEIDKMRDEDRVAIHEAMEQQTVSIAKAGIVAKLNARAAVIAAGNPKFGRYISERPVSDNINLPPTILSRFDLIFILKDQPGEQDRELANYILDVHSGKSTKNIIDIDTLRKYIAYARKYVTPKITSEAKNLITDFFVEMRKKSSETPDSPILITPRQLEALIRISEAYAKMALKAEVTREDAERAINIMRLFLESVGVDMESGKIDIDTIMTGKPKSAREKMMKIIEIIDSLAVSSECAKVKDILKEAQQVGIEKSNIEKLLTDMRKSGIIYEAKPECYKKV
# notes: MCM of Sulfolobus solfataricus with D327A; source: cloned and purified (Resource Q anion exchange, size-exclusion chromatography) as described previously [15]
# B2: ssoMCM mutant M3 (L325A) (enzyme, Sulfolobus solfataricus, UniProt Q9UXG1 1-686, looked up)
# chain: B1 chain with L325A, A327D
# notes: MCM of Sulfolobus solfataricus with L325A; source: cloned and purified (Resource Q anion exchange, size-exclusion chromatography) as described previously [15]
# B3: ssoMCM mutant M2 (V324A) (enzyme, Sulfolobus solfataricus, UniProt Q9UXG1 1-686, looked up)
# chain: B1 chain with V324A, A327D
# notes: MCM of Sulfolobus solfataricus with V324A; source: cloned and purified (Resource Q anion exchange, size-exclusion chromatography) as described previously [15]
# B4: ssoMCM mutant M10 (K346A, Walker A mutant) (enzyme, Sulfolobus solfataricus, UniProt Q9UXG1 1-686, looked up)
# chain: B1 chain with A327D, K346A
# notes: MCM of Sulfolobus solfataricus with K346A (Walker A lysine); source: cloned and purified (Resource Q anion exchange, size-exclusion chromatography) as described previously [15]
# B5: ssoMCM mutant M5 (E326A) (enzyme, Sulfolobus solfataricus, UniProt Q9UXG1 1-686, looked up)
# chain: B1 chain with E326A, A327D
# notes: MCM of Sulfolobus solfataricus with E326A; source: cloned and purified (Resource Q anion exchange, size-exclusion chromatography) as described previously [15]
# B6: ssoMCM mutant M1 (K323A; printed R323A in Table 2) (enzyme, Sulfolobus solfataricus, UniProt Q9UXG1 1-686, looked up)
# chain: B1 chain with K323A, A327D
# notes: MCM of Sulfolobus solfataricus with the mutation of M1; also called K323 (M1); source: cloned and purified (Resource Q anion exchange, size-exclusion chromatography) as described previously [15]
# B7: ssoMCM mutant M9 (R331A) (enzyme, Sulfolobus solfataricus, UniProt Q9UXG1 1-686, looked up)
# chain: B1 chain with A327D, R331A
# notes: MCM of Sulfolobus solfataricus with R331A; source: cloned and purified (Resource Q anion exchange, size-exclusion chromatography) as described previously [15]
# B8: ssoMCM mutant M8 (R329A) (enzyme, Sulfolobus solfataricus, UniProt Q9UXG1 1-686, looked up)
# chain: B1 chain with A327D, R329A
# notes: MCM of Sulfolobus solfataricus with R329A; source: cloned and purified (Resource Q anion exchange, size-exclusion chromatography) as described previously [15]
# B9: Sulfolobus solfataricus MCM (minichromosome maintenance protein), wild type (enzyme, UniProt Q9UXG1 1-686, looked up)
# chain: B1 chain with A327D
# notes: MCM of Sulfolobus solfataricus, wild type; also called ssoMCM; WT; source: cloned and purified (Resource Q anion exchange, size-exclusion chromatography) as described previously [15]
# B10: ssoMCM mutant M4 (VL324AA) (enzyme, Sulfolobus solfataricus, UniProt Q9UXG1 1-686, looked up)
# chain: B1 chain with V324A, L325A, A327D
# notes: MCM of Sulfolobus solfataricus with the double mutation VL324AA (V324 and L325 to alanine); source: cloned and purified (Resource Q anion exchange, size-exclusion chromatography) as described previously [15]
# Columns and labels:
# [1] = target: ssoMCM mutant M7 (ED327AA) (Sulfolobus solfataricus) (UniProt Q9UXG1); assay: SEC; Superose 6 size exclusion column, 250 mM NaCl; ~0.5 mg of protein; markers ferritin (440 kD) and aldolase (158 kD); self-association to the hexamer
# [2] = target: the molecule itself; assay: as above
# [3] = substrate: Nc1ncnc2c1ncn2[C@@H]1O[C@H](COP(=O)(O)OP(=O)(O)OP(=O)(O)O)[C@@H](O)[C@H]1O; assay: EnzChek phosphate release ATPase assay; format: biochemical, Saccharolobus solfataricus; settings: no DNA, per monomeric MCM subunit, unit nM
# Text: EnzChek phosphate release ATPase assay on ssoMCM
# [4] = mutant M1: text gives lysine K323, Table 2 prints R323A
molecule,measurement,setting,value
ssoMCM mutant M7 (ED327AA) (from UniProt Q9UXG1 1-686) (enzyme),stoichiometry N,[1],6
B1,stoichiometry N,[2],6
same,Km,[3]; mutant M6,100 ± 20 nM
same,kcat,[3]; mutant M6,0.0383 ± 0.00167 s⁻¹
B2,stoichiometry N,[2],6
same,Km,[3]; mutant M3,270 ± 40 nM
same,kcat,[3]; mutant M3,0.0783 ± 0.005 s⁻¹
B3,stoichiometry N,[2],6
same,Km,[3]; mutant M2,120 ± 20 nM
same,kcat,[3]; mutant M2,0.04 ± 0.00167 s⁻¹
B4,stoichiometry N,[2],6
B5,stoichiometry N,[2],6
B6,stoichiometry N,[2],6
same,Km,[3]; [4],140 ± 30 nM
same,kcat,[3]; [4],0.03 ± 0.00167 s⁻¹
B7,stoichiometry N,[2],6
B8,stoichiometry N,[2],6
same,Km,[3]; mutant M8,170 ± 40 nM
same,kcat,[3]; mutant M8,0.03 ± 0.00167 s⁻¹
B9,stoichiometry N,[2],6
same,Km,[3],170 ± 20 nM
same,kcat,[3],0.0517 ± 0.00167 s⁻¹
B10,stoichiometry N,[2],6
same,Km,"[3]; mutant M4, printed VL324AA",230 ± 10 nM
same,kcat,"[3]; mutant M4, printed VL324AA",0.065 ± 0.00167 s⁻¹
